Here are results for two molecules from US20250304666A1 (ALCHEMAB THERAPEUTICS, published 2025).

One test has as its target T1, reduced CFH (Homo sapiens (Human), UniProt P08603 860-1231, limits assumed).
T1 construct: also called CFH (reduced)
T1 sequence: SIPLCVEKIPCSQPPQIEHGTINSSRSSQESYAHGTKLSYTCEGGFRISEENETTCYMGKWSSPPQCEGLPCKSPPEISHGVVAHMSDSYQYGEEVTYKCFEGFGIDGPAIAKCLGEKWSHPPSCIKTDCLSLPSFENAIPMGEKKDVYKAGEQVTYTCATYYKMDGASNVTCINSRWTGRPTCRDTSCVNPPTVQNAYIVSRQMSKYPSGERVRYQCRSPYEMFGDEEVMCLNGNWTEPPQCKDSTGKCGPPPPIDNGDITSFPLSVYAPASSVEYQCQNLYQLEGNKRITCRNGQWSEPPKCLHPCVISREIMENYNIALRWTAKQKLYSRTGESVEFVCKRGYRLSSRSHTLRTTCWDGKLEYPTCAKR
In words: direct ELISA on reduced CFH.

The target in the next test is T2, non-reduced CFH.
T2 construct: also called CFH (NON-REDUCED)
T2 chain: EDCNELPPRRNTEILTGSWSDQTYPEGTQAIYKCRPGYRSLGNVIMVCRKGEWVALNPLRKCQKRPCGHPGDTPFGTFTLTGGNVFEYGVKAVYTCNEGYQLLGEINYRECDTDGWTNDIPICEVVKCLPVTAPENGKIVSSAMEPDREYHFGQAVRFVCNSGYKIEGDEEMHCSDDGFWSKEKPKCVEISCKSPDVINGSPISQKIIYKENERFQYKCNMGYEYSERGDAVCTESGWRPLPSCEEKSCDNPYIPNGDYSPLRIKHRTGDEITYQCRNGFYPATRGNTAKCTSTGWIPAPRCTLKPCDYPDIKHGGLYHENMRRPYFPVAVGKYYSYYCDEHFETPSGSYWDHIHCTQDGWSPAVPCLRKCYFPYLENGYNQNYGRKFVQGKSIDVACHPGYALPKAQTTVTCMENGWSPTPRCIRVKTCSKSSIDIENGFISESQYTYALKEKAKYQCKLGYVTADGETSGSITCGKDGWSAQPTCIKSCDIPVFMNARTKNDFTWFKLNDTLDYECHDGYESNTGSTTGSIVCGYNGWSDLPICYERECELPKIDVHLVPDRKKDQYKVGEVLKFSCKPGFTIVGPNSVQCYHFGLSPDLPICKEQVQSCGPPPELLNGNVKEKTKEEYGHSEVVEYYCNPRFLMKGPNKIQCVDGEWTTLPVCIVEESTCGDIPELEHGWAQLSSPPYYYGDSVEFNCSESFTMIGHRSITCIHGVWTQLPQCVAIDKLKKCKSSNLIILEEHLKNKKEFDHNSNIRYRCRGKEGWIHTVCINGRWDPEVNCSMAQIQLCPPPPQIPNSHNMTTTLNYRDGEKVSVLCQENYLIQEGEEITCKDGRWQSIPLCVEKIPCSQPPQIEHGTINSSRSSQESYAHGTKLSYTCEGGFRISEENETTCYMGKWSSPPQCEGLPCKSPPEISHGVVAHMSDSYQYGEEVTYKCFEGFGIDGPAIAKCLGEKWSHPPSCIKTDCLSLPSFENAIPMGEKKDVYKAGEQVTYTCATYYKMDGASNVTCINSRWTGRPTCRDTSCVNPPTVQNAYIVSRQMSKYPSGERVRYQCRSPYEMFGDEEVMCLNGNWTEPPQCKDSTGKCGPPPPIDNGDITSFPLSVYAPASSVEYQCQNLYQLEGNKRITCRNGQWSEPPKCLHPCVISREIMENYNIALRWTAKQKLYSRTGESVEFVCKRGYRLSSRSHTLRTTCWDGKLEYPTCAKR
In words: direct ELISA on non-reduced CFH.

Another test addresses T3, reduced CFHR3 (UniProt Q02985 19-330, limits assumed).
T3 sequence (looked up): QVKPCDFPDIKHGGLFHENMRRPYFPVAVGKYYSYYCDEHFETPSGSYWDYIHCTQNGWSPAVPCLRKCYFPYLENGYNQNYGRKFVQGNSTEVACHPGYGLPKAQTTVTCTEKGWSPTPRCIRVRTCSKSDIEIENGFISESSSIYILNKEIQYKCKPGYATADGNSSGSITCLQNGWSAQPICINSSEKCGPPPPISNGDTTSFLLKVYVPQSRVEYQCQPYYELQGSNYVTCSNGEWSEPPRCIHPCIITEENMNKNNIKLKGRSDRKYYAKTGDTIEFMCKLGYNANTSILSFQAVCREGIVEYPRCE
The test can be described thus: ELISA on reduced CFHR3.

For the next test, the target named is T4, reduced CFHR5 (UniProt Q9BXR6 19-569, limits assumed).
T4 sequence (looked up): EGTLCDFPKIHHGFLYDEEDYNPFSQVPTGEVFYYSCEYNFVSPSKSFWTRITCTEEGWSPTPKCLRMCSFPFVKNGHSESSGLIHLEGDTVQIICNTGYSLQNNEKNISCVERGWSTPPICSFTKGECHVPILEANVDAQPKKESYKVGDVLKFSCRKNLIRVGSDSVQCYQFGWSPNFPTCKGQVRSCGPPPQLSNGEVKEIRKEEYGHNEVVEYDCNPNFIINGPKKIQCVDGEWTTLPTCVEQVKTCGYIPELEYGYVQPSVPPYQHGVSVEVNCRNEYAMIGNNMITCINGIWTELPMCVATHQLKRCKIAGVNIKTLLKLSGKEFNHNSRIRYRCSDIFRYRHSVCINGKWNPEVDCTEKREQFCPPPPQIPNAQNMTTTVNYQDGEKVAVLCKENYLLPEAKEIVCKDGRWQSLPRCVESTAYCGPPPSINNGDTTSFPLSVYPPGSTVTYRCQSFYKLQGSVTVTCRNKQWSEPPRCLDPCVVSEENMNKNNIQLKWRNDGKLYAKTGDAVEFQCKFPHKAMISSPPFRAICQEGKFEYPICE
The test can be described thus: ELISA on reduced CFHR5.

B1: ATL4717 (antibody, human IgG1, kappa, V domains shown)
VH: QVQLVESGGGMVQPGRSLRLSCAASGFTFSIYGMHWVRQAPGRGLEWVAVMSFDGKTKYYADSVKGRFTISRDNSKNTLYLQMNSLRRVDTAVYYCAKGGATAAVFDSWGQGTLVTVSS
VL: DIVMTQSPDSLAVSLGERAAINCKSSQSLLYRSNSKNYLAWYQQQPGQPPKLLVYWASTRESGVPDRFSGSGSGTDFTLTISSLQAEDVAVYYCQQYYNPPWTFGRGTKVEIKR
notes: Human IgG1; also called ATL0004717; ATL04717
As for B1, the figures for the “EC50 (read off the curve)” value with reduced CFH and with non-reduced CFH were approximately 0.1 nM and approximately 0.2 nM, respectively.

B2: ATL5170 (antibody, human IgG1, kappa, V domains shown)
VH: QVQLVESGGGVVQPGRSLRLSCAASGFTFSNYGMHWVRQAPGKGLEWVAVTSFDGKTKYYADSVKGRFTISRDNSKNTLYLQMNSLRAEDTAVYYCAKGGATAAVLDSWGQGTLVTVSS
VL: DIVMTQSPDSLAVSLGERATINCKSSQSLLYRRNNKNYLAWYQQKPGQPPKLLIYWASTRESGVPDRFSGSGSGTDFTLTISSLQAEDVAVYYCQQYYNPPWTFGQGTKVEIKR
notes: IgG1; also called ATL_0005170
Take B2: the binding result with reduced CFHR3 and with reduced CFHR5 was “no binding (tested: 100 ug/ml)” in each case.
